Test results reported in publication PMC6863750.

Tests used:
[1] = biological target: Rac1A P29S/Q61L-mCherry-mito (targeted to mitochondria) (D. discoideum) (UniProt P34144); assay: mitochondrial co-recruitment
[2] = biological target: GFP-CYRI-mito, WT (Dictyostelium CYRI targeted to mitochondria) (D. discoideum); assay: mitochondrial co-recruitment

Row | Pearson's coefficient of correlation for co-localisation at the mitochondria [1] | Pearson's coefficient of correlation for co-localisation at the mitochondria [2] | Substance
1 | 0.77 |  | Dictyostelium CYRI WT, GFP fusion (natural protein)
2 |  | 0.44 | Rac1A P29S/Q61L-mCherry (from UniProt P34144 1-194) (natural protein)
